Data on one substance can be found in publication PMC4482598.

This assay has as its target ryanodine receptor type 1 (RyR1), endogenous in mouse myotubes (mouse (endogenous in mouse myotubes)) (UniProt E9PZQ0).
Chain of UniProt E9PZQ0 (E9PZQ0 whole entry): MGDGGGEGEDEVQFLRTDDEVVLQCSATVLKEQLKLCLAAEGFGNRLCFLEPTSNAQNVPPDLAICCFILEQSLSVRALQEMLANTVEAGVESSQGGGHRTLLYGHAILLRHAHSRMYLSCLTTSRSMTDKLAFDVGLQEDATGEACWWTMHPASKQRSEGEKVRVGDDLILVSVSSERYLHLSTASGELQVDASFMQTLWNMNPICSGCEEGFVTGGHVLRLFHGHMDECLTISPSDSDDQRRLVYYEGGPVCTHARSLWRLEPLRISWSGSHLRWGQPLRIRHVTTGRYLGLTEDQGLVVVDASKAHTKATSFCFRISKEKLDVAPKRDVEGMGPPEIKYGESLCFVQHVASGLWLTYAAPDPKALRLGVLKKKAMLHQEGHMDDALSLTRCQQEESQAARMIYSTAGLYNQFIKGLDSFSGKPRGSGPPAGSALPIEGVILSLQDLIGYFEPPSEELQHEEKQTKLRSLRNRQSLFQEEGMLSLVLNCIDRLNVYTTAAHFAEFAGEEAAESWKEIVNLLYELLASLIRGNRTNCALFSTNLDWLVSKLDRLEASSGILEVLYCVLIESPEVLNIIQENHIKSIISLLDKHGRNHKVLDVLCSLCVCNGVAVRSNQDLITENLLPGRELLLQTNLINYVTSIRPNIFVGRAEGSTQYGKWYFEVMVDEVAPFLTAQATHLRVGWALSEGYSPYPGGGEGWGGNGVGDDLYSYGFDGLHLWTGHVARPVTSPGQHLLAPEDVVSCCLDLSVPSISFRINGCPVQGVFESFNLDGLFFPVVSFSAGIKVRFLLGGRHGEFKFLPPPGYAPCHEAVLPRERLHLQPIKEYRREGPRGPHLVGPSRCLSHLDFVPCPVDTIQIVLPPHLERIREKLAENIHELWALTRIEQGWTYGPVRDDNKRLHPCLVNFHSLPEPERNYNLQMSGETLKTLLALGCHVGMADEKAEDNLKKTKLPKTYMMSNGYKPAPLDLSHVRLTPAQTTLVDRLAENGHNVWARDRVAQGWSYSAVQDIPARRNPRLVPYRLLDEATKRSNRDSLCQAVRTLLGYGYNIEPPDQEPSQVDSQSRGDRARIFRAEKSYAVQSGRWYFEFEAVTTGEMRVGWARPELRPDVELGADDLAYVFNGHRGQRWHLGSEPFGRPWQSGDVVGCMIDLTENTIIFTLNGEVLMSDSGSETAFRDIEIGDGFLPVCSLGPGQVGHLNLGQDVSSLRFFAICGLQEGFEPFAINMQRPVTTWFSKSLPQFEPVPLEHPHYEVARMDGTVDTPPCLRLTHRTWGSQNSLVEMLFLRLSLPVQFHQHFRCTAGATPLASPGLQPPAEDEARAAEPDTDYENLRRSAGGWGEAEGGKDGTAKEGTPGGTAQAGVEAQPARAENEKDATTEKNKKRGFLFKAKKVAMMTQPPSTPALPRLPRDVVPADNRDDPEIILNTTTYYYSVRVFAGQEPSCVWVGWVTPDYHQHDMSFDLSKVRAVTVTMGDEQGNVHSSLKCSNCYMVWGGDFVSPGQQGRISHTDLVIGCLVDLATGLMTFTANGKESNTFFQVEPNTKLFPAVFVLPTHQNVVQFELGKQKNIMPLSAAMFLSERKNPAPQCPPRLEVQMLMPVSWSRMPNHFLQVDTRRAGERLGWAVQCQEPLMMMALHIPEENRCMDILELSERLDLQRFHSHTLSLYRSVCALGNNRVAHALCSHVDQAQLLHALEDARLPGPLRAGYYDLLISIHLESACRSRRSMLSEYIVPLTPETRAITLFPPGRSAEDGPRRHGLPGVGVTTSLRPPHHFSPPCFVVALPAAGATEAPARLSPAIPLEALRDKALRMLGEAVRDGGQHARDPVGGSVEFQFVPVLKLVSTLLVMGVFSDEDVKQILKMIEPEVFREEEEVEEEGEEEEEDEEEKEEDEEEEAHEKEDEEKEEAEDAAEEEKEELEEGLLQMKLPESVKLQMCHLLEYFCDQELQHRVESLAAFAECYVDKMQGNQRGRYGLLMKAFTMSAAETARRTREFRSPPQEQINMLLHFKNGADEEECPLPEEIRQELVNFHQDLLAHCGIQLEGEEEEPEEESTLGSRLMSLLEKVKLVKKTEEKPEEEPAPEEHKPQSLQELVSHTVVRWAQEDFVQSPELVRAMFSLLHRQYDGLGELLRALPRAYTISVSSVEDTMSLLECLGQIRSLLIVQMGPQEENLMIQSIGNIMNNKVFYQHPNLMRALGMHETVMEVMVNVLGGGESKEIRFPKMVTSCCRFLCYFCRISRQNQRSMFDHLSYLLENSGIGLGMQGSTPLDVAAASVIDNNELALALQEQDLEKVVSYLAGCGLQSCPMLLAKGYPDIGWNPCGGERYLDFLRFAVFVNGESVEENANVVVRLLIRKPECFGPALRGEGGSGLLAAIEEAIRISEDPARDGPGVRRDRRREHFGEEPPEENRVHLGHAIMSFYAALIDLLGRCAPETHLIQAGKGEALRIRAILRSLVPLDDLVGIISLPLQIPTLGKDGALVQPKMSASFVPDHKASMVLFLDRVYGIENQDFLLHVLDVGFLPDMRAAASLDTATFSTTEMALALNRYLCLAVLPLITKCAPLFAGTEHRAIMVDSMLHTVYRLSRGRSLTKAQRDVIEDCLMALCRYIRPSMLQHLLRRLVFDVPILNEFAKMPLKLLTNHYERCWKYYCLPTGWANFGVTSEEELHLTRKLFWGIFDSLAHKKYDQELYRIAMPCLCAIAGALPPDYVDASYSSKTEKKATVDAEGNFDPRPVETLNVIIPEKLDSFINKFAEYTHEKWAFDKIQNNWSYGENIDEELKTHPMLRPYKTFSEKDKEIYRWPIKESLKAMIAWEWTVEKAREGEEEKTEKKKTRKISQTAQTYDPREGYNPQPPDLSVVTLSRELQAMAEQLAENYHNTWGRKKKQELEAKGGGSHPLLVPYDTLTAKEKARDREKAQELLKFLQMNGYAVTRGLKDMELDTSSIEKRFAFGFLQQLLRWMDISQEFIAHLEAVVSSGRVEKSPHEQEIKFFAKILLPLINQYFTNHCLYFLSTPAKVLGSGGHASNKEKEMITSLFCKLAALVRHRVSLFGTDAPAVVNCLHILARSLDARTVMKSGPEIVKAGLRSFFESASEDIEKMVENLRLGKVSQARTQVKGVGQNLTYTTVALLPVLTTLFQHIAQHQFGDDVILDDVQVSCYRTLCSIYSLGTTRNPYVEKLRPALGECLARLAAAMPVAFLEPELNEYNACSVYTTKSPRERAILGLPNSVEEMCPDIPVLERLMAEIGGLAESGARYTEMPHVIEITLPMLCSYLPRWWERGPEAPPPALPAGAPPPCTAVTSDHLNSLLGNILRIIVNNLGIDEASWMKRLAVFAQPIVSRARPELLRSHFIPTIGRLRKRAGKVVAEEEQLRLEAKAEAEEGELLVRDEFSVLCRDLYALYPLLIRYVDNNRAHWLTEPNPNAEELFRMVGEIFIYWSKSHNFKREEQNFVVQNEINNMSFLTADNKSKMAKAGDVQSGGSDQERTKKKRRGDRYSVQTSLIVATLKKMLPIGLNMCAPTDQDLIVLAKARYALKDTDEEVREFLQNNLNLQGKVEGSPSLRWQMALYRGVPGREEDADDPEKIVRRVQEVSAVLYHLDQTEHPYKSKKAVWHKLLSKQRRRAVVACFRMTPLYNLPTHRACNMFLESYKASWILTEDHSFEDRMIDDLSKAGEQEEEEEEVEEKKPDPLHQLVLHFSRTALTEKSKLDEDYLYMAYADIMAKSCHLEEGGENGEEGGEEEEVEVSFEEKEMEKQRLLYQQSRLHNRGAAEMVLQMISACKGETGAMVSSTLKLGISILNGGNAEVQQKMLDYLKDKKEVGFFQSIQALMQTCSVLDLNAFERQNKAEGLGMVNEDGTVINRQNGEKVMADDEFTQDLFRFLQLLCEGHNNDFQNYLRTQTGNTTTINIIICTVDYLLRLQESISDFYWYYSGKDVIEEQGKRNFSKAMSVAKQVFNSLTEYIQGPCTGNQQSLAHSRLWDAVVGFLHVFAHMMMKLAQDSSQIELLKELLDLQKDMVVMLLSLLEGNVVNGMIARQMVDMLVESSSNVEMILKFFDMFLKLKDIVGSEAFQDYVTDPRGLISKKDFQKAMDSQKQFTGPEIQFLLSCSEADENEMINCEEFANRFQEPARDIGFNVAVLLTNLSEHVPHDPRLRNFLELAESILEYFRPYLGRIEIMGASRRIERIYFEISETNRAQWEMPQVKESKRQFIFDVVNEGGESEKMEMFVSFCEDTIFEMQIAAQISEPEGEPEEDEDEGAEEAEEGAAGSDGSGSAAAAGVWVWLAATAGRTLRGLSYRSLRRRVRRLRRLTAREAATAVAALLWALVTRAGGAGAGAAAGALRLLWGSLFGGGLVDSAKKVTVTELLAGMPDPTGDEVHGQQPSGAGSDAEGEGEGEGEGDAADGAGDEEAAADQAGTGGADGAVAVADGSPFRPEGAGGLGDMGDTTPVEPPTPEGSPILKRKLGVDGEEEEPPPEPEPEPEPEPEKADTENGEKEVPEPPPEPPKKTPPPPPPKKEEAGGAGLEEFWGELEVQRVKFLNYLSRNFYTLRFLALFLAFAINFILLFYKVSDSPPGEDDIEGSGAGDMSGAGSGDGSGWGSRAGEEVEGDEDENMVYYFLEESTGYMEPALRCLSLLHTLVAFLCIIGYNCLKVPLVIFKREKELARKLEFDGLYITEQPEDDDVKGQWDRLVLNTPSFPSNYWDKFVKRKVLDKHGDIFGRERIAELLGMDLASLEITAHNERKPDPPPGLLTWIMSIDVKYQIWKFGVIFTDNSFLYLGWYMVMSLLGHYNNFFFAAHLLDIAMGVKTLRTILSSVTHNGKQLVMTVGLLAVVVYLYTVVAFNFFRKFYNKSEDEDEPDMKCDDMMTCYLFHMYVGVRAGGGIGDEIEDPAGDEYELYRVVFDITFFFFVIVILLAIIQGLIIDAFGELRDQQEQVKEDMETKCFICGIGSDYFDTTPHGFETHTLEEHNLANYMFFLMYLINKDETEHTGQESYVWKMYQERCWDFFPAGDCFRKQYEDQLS

For “H458 CCPGCC ß1a-CFP (construct 21) (natural protein)”, the intramolecular FRET efficiency (C-terminal CFP to FlAsH at H458) of construct 21 in ß1 KO myotubes (control without native ß1 subunits) came out at 0.12.
